Patent US20220143204A1 (LINXIS B V, published 2022)

Columns and labels:
[1] = target: T1, rat PDGFRB extracellular domain (rat, UniProt Q05030 32-531); assay: binding assay on immobilised rat PDGFRB ectodomain, apparent affinity (Example 4)
T1 construct: extracellular domain; also called rPDGFRB-ECD; rat PDGFRB ectodomain
T1 sequence (looked up): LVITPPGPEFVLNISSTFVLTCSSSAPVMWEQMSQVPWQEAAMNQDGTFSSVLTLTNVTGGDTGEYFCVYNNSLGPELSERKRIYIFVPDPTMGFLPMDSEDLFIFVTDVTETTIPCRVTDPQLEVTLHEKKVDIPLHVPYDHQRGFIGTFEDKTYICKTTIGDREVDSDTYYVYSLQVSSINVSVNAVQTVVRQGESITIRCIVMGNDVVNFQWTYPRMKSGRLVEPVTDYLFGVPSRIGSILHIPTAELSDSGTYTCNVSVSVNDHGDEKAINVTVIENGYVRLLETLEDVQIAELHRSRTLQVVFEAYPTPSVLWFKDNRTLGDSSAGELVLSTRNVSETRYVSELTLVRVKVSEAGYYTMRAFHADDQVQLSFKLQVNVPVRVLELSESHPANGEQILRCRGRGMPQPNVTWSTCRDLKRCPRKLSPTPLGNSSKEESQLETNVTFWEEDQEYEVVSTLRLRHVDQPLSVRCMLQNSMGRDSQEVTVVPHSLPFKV

[2] = target: T2, rat PDGFRB on SCC VII cells (rat, UniProt Q05030 32-1097); assay: binding assay on SCC VII cells transfected with rat PDGFRB (Example 4)
T2 construct: whole, on cells; also called rPDGFRB; SCC-rPDGFRB

[3] = target: T3, human PDGFRB extracellular domain (human, UniProt P09619 33-532); assay: binding assay on immobilised human PDGFRB ectodomain, apparent affinity (Example 4)
T3 construct: extracellular domain; also called hPDGFRB-ECD; human PDGFRB ectodomain

[4] = target: T4, human PDGFRB on LX-2 cells (human, UniProt P09619); assay: binding assay on the human hepatic stellate cell line LX-2 (Example 4)
T4 construct: full-length receptor on the cell surface; The list has human PDGFRB only on SCC VII cells

[5] = target: T5, human PDGFRB on SCC VII cells (human, UniProt P09619 33-1106); assay: binding assay on SCC VII cells transfected with human PDGFRB (Example 4)
T5 construct: whole, on cells; also called hPDGFRB; SCC-hPDGFRB
T5 sequence (P09619 33-1106): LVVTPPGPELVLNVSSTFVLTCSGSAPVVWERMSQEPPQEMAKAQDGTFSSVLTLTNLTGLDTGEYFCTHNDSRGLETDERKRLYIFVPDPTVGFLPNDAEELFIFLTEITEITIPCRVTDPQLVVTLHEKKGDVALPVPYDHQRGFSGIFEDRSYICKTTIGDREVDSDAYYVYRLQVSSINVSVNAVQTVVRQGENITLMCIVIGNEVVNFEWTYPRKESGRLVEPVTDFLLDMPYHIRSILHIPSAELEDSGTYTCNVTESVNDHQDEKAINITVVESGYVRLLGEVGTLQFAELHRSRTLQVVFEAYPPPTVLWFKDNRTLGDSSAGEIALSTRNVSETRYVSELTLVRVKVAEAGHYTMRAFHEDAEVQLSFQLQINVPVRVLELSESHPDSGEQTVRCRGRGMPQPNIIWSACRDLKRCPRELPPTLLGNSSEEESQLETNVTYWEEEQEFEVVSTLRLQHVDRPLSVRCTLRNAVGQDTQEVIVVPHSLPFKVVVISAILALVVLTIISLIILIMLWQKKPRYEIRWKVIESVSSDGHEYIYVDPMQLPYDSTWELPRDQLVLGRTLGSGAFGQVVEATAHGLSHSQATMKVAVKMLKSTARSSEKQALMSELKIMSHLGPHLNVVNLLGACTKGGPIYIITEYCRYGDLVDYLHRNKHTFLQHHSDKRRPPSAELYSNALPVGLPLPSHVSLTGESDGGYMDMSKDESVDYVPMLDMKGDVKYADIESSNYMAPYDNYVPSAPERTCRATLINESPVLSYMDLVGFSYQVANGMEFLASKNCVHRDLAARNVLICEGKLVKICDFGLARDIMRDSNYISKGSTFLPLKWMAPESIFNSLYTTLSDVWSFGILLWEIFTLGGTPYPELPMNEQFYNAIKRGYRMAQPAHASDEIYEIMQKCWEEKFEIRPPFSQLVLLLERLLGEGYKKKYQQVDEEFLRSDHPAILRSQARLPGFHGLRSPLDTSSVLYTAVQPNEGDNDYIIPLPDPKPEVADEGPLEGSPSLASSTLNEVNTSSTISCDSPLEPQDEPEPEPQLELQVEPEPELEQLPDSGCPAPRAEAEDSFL

T4 sequence (P09619 33-1106 limits assumed): as the sequence (P09619 33-1106) above
T3 sequence (P09619 33-532): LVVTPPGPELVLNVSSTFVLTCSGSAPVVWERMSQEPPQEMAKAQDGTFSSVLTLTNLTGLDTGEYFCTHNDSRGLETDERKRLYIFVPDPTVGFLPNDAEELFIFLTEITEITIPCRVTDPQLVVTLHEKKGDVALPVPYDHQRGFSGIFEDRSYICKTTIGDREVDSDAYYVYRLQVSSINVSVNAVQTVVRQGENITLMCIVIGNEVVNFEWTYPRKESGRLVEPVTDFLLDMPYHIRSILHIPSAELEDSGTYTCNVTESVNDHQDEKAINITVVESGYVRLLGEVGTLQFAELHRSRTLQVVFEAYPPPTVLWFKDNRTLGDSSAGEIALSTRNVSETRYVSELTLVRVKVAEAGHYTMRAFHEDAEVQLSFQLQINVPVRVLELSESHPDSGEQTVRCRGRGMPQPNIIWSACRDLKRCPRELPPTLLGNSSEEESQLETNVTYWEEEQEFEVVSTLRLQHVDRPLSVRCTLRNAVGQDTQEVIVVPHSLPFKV

B1: SP35P (VHH)
VHH: EVQLVESGGGLVQPGGSLRLSCAASGSLGSNNPMAWYRQAPGKERELVASISSAYRTHYADFVKGRFTISRDSPKNTVSLQMNNLKPEDTAVYYCGIFVSARNYWGKGTQVTVSS
notes: Llama VHH; on phage in the phage ELISA
binding result [1]: binds

B2: SP36P (VHH)
VHH: EVQLVESGGGLVQAGGSLRLSCTPSITTAGTTIMAWFRQAPGNEREFVAAIWGSKTAYGDSMKGRLTISRDNVRDNGQKTVFLQMNNLQLQDTATYYCAASSGGYVHSSTSYEIWGRGTQVTVSS
notes: as for B1
Kd [2]: 76.6 nM | Kd [1]: 31 nM

B3: SP23P (VHH)
VHH: EVQLVESGGELVQAGGSLRLSCAVSGRTLTSYPMGWFRQAPGKEREFVAAISWSGGDTMYADSVKGRFTISRDNSKNTVYLQMNSLKPEDTADYYCARRRYSSGISRHLVDYEYWGQGTQVTVSS
notes: as for B1
binding result [3]: binds

B4: SP15P (VHH)
VHH: EVQLVESGGGLVQAGGSLRLSCAASGRAFGGPYMAWFRQTPGKGREFVAAISPSSVYTFYQDSVKGRFTISRDNTKNTAYLQMNSLKPEDTAVYYCAAEAAGEVRLETSYKYWGQGTQVTVSS
notes: as for B1
binding result [3]: binds

B5: SP05P (VHH)
VHH: EVQLVESGGGLVQAGGSLRLSCAASGRTSFSGYAMAWFRQAPGKERDFVASITWSYGYTYYTDSAQGRFTISRDSAKNTVYLEMNSLKPEDTAVYYCAADPKASRFRILREYAYWGQGTQVTVSS
notes: as for B1
Kd [4]: 193 nM | Kd [5]: 1.4 nM | Kd [3]: 9.2 nM

B6: SP14P (VHH)
VHH: EVQLVESGGGLVQAGDSLRLSCVVSGLTFSRYGMGWFRQATGKEREFVGGISVGSSGTMYPNSVKGRFTISRDNAKSTVYLQMNSLKPEDTAVYFCAAIDQGSFVQQRDYRYWGQGTQVTVSS
notes: as for B1
Kd [4]: 3.1 nM | Kd [5]: 0.6 nM | Kd [3]: 8.6 nM

B7: SP32P (VHH)
VHH: EVQLVESGGGTVQAGDSLRLSCTASGRTFSTYTMGWFRQAPGKERVVVAVNTWNNFTVHQPSVKGRFTMSRDNTKNSIYLQMDSLKPEDTAVYYCAASAKGTARYDYWGQGTQVTVSS
notes: as for B1
binding result [1]: binds

B8: SP27P (VHH)
VHH: EVQLVESGGGLVQIGDSLRLSCAASGGTFNRYGMGWFRQAPGKEREFVAAIRWDGVDTNYADFVKGRFTISRYNAKNTAYLQMNSLKPEDTAVYYCAADRRGLYTKHAHRYDYWGQGTQVTVSS
notes: as for B1
Kd [1]: 25.5 nM

B9: SP01P (VHH)
VHH: EVQLVESGGGLAQAGGSLRLSCVASGNIDSANGMAWYRQAPGKQRELVAHITSGTSYYVASVEGRFTISRANAKDTWYLQMNSLKPEDTGVYYCFPIGLSAHWSQGTQVTVSS
notes: as for B1
Kd [5]: 7.8 nM | Kd [3]: 20.4 nM

B10: SP21P (VHH)
VHH: EVQLVESGGGLVQPGGSLRLSCVVSGSSFSSYTMGWFRRAPGKQRELVAGVSTVGDTAAADSVKGRFTISRDNAKNTVYLQMNSLKPEDTAVYYCNTYPHAYLEWGQGTQVTVSS
notes: as for B1
binding result [3]: binds

B11: SP31P (VHH)
VHH: EVQLVESGGGLVQAGGSLRLSCAASRGTFGTYIMGWFRQAPGKEREFVAAISWRGANTYYGYSVKGRFTISRDNAKNTMYLQMADLKPEDTADYYCGVHLNGTPYYYASGYRYWGQGTQVTVSS
notes: as for B1
Kd [2]: 31.8 nM | Kd [1]: 276 nM

B12: SP30P (VHH)
VHH: EVQLVESGGGLVQAGGSLRLSCAASRGTFGTDIMGWFRQAPGKEREFVAAISWRGANTYYGYSVKGRFTISRDNAKNTMYLQMADLKPEDTADYYCGVHLNGTPYYYASGYRYWGQGTQVTVSS
notes: as for B1
Kd [1]: 12.2 nM

B13: SP17P (VHH)
VHH: EVQLVESGGGLVQPGGSLRLSCAASGLTFVNYAMGWFRQAPGKERELVAGIASSGRIYYADSVAGRFTISRDNARNTVNLQMNSMKPEDTAVYYCAGRRSFSSTSAADYNYWGQGTQVTVSS
notes: as for B1
binding result [3]: binds

B14: SP29P (VHH)
VHH: EVQLVESGGGLVQAGDSLRLSCTVSGRTFNTYVTGWFRQAPGKEREFVAAIHQIGSTYYRNSVKGRFTISRDGAKDTVYLQMNNLKPEDSAVYYCAAGNGGYVMSDIAYGTWGQGTQVTVSS
notes: as for B1
binding result [1]: binds

B15: SP25P (VHH)
VHH: EVQLVESGGGLVQPGGSLRLSCAASESIFSINAMGWYRQTPGKQREMVASITPGGFTIYADSVKGRFTISRDNAKNTLYLQMNNLRFEDTAVYYCNAFAGSATSYHDFGSWGQGTQVTVSS
notes: as for B1
binding result [1]: binds

B16: SP07P (VHH)
VHH: EVQLVESGGGSVQTGGSLRLSCAASGRSFSTYAMAWFRQAPGKEREFVAAINRRATDTVYADSAKGRFIISRDNDKNTVYLQMDSLKTEDTAVYYCAAAKNAYDWRWDRLRDRDYWGQRGQGTQVTVSS
notes: as for B1
Kd [5]: 62.3 nM | Kd [3]: 10.1 nM

B17: SP12P (VHH)
VHH: EVQLVESGGGLVQAGGSLRLSCVISGRTSPTYPMGWFRQSPGNEREFVASINWSGGWRNYADSVKGRFTISRDDAKNTVYLQMNSLKPEDTAVYYCARGQYSSGTPVYAHEYAYWGQGTQVTVSS
notes: as for B1
Kd [4]: 0.6 nM | Kd [5]: 0.3 nM

B18: SP20P (VHH)
VHH: EVQLVESGGGLVQAGGSLRLSCVISGRTSPTYPMGWFRQSPGNEREFVASINWSGGWRNYADSVKDRFTISRDDAKNTVYLQMNSLKPEDTAVYYCARGQYSSGTPVYAHEYAYWGQGTQVTVSS
notes: as for B1
Kd [4]: 53.6 nM | Kd [5]: 1 nM | Kd [3]: 3.8 nM

B19: SP13P (VHH)
VHH: EVQLVESGGGLVQPGGSLRLSCAASESIFSINYMAWYRQAPGKQRELVAFSIDGSSTNYVDSVRGRFTASRDNAENTLYLQMNSLKPEDTAVYYCYAQGNTWAAGVWGQGTQVTVSS
notes: as for B1
Kd [5]: 10.4 nM | Kd [3]: 9.3 nM

B20: SP10P (VHH)
VHH: EVQLVESGGGLVQAGGSLRLSCAASGRTFNGYAMGWFRQAPGKERDFVAAITWSYGYTHYAESVKGRFSISRDSANNMVYLEMNSLKPEDTAVYYCAADPKASRFRTLRRYDYWGQGTQVTVSS
notes: as for B1
Kd [5]: 0.9 nM

B21: SP11P (VHH)
VHH: EVQLVESGGGLVQAGDSLRLSCAASGRTFSSYPIAWFRQAPGKEREFVAAITSSGLTTYYANVVKGRFAISRDNAKDTVYLQMNSLKPEDTAVHYCATSNGFLSGRDIYQHNKYIYWGQGTQVTVSS
notes: as for B1
binding result [3]: binds

B22: SP08P (VHH)
VHH: EVQLVESGGGLVQAGGSLRLSCAASGRTFNGYAMAWFRQAPGKERDFVASITWSYGYTYYADSAQGRFTISRDSAKNTVYLEMNSLKPEDTAVYYCAADPKASRFRILRQYAHWGQGTQVTVSS
notes: as for B1
Kd [4]: 60.2 nM | Kd [5]: 0.5 nM
